This sample holds only a part of the variants without activity.
Key:
biotinyl-Phe-oxazolone = assay: self-aminoacylation, catalytic enhancement (BFO) (fold over background); higher = more active; k-Seq, kA / k0A0; sequences stand for … in GGGAAUGGAUCCACAUCUACGAAUUC…UUCACUGCAGACUUGACGAAGCUG
Procedure, shortened: (§1)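 The uncatalyzed rate is the low-activity peak of a bimodal Gaussian fit, and catalytic enhancement is median kA divided by it. The kA values came from pseudo-first-order fits, with 1000 bootstraps, of per-sequence fraction reacted measured by streptavidin capture, triplicate qPCR and Illumina sequencing. Mutagenized RNA pools with a 21-nt variable region (0.43 μM) were reacted with each biotinyl-aminoacyl-oxazolone at 2–1250 μM in 50 μL HEPES/NaCl/KCl/MgCl2/CaCl2 buffer with 5% acetonitrile, pH 6.9–7.0, for 90 minutes at room temperature.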

biotinyl-Ile-oxazolone = assay: self-aminoacylation, catalytic enhancement (BIO) (fold over background); higher = more active; k-Seq, kA / k0A0; sequences stand for … in GGGAAUGGAUCCACAUCUACGAAUUC…UUCACUGCAGACUUGACGAAGCUG
Procedure, shortened: as §1

biotinyl-Met-oxazolone = assay: self-aminoacylation, catalytic enhancement (BMO) (fold over background); higher = more active; k-Seq, kA / k0A0; sequences stand for … in GGGAAUGGAUCCACAUCUACGAAUUC…UUCACUGCAGACUUGACGAAGCUG
Procedure, shortened: as §1

biotinyl-Val-oxazolone = assay: self-aminoacylation, catalytic enhancement (BVO) (fold over background); higher = more active; k-Seq, kA / k0A0; sequences stand for … in GGGAAUGGAUCCACAUCUACGAAUUC…UUCACUGCAGACUUGACGAAGCUG
Procedure, shortened: as §1

biotinyl-Leu-oxazolone = assay: self-aminoacylation, catalytic enhancement (BLO) (fold over background); higher = more active; k-Seq, kA / k0A0; sequences stand for … in GGGAAUGGAUCCACAUCUACGAAUUC…UUCACUGCAGACUUGACGAAGCUG
Procedure, shortened: as §1

biotinyl-Trp-oxazolone = assay: self-aminoacylation, catalytic enhancement (BWO) (fold over background); higher = more active; k-Seq, kA / k0A0; sequences stand for … in GGGAAUGGAUCCACAUCUACGAAUUC…UUCACUGCAGACUUGACGAAGCUG
Procedure, shortened: as §1

Row | Sequence | self-aminoacylation (biotinyl-Phe-oxazolone) | self-aminoacylation (biotinyl-Ile-oxazolone) | self-aminoacylation (biotinyl-Met-oxazolone) | self-aminoacylation (biotinyl-Val-oxazolone) | self-aminoacylation (biotinyl-Leu-oxazolone) | self-aminoacylation (biotinyl-Trp-oxazolone)
1 | AUUCACAUAGAUCAUCGGGUG [Fam2.2 aminoacylation ribozyme variant] | 35.2 | 2.93 | 4.43 | 2.8 | 5.04 | 3.84
2 | AAGUUUGCUAAAAGUCACAAG [Fam3.1 aminoacylation ribozyme variant] | 3.25 | 1.35 | 0.971 | 1.07 | 0.919 | 2
3 | AUUCACCUAUGUCCUCGGGUG [Fam2.2 aminoacylation ribozyme variant] | 21.6 | 2.17 | 3.04 | 2.04 | 4.03 | 3.42
4 | AUUUCCCUGGCCAUCGAGUGA [Fam2.1 aminoacylation ribozyme variant] | 11.7 | 1.72 | 2.45 | 1.95 | 2.78 | 3.3
5 | CUGACCCUGGUCAUCGAGUGA [Fam2.1 aminoacylation ribozyme variant] | 7.35 | 3.64 | 7.22 | 4.5 | 7.94 | 8.61
6 | ACACACUUCAAGCAAUUGGUC [Fam1B.1 aminoacylation ribozyme variant] | 1.61 | 1.09 | 1.01 | 1.17 | 0.945 | 1.29
7 | CCACACUUCAAGAAAUCGGGC [Fam1B.1 aminoacylation ribozyme variant] | 1.14 | 2.14 | 1.82 | 1.69 | 1.64 | 2.16
8 | AAGUUUGGUAUUAGUCGCAAG [Fam3.1 aminoacylation ribozyme variant] | 2.44 | 1.65 | 1.51 | 1.47 | 1.5 | 1.74
9 | AUUCACCUACGUCAUCGCGUG [Fam2.2 aminoacylation ribozyme variant] | 83.5 | 5.7 | 10.3 | 5.93 | 14.1 | 9.63
10 | GUUACCCUGGUCGUCGAGUGA [Fam2.1 aminoacylation ribozyme variant] | 9.01 | 1.5 | 2.13 | 1.6 | 1.9 | 2.24
11 | AUUCACCUAGGUCAGCCGGUG [Fam2.2 aminoacylation ribozyme variant] | 61.6 | 5.17 | 7.35 | 5.3 | 11.3 | 6.47
12 | CUUCACCUAGGUCAUUGGGUG [Fam2.2 aminoacylation ribozyme variant] | 12.3 | 1.98 | 2.36 | 2.22 | 2.25 | 2.35
13 | AUUACCCUGGUCAUUGCGUGA [Fam2.1 aminoacylation ribozyme variant] | 108 | 6.44 | 15.8 | 7.31 | 18.1 | 17.1
14 | AUUCAGCUAGGUCAUCGGGUG [Fam2.2 aminoacylation ribozyme variant] | 35 | 3.7 | 4.92 | 4.2 | 5.83 | 5.34
15 | CCACACUUCAUACAAUCGGUC [Fam1B.1 aminoacylation ribozyme variant] | 0.729 | 0.618 | 0.608 | 0.744 | 0.703 | 0.726
16 | AUUACCCUGGUCAUCGGGUUA [Fam2.1 aminoacylation ribozyme variant] | 218 | 12.3 | 38.5 | 17.8 | 42.4 | 45.8
17 | GUUACGCUGGUCAUCGAGUGA [Fam2.1 aminoacylation ribozyme variant] | 59.2 | 5.57 | 7.2 | 4.86 | 8.34 | 10.6
18 | AAGUUUGCUAAUAGUAUCAAG [Fam3.1 aminoacylation ribozyme variant] | 1.64 | 1 | 1.22 | 0.928 | 0.714 | 0.998
19 | CUACUUUAAACAAUCGGUGUG [Fam1A.1 aminoacylation ribozyme variant] | 0.998 | 0.722 | 0.925 | 0.737 | 0.855 | 0.673
20 | CUACACUUUAAGCAAUCGGUC [Fam1B.1 aminoacylation ribozyme variant] | 0.979 | 0.768 | 0.63 | 0.74 | 0.585 | 0.565
21 | AACUUUGCUUAUAGUCGCAAG [Fam3.1 aminoacylation ribozyme variant] | 3.75 | 2.58 | 3.18 | 2.2 | 2.98 | 2.98
22 | AUACACCUACGUCAUCGGGUG [Fam2.2 aminoacylation ribozyme variant] | 31.8 | 3.12 | 4.6 | 2.49 | 5.2 | 3.83
23 | AUACACCUUGGUCAUCGGGUG [Fam2.2 aminoacylation ribozyme variant] | 19.9 | 3.47 | 3.63 | 2.89 | 4.72 | 4.4
24 | AUUCGCCUAGGUCAUCGAGUG [Fam2.2 aminoacylation ribozyme variant] | 29.3 | 8.77 | 11.7 | 7.39 | 15.9 | 7.17
25 | AUUCCCCUUGUCAUCGAGUGA [Fam2.1 aminoacylation ribozyme variant] | 70.6 | 6.44 | 11.1 | 7.45 | 11.4 | 14.9
26 | AUUCACCUAGGCCAUUGGGUG [Fam2.2 aminoacylation ribozyme variant] | 34.9 | 3.11 | 4.09 | 2.85 | 5.31 | 3.71

Row | Sequence | self-aminoacylation (biotinyl-Phe-oxazolone) | self-aminoacylation (biotinyl-Ile-oxazolone) | self-aminoacylation (biotinyl-Met-oxazolone) | self-aminoacylation (biotinyl-Val-oxazolone) | self-aminoacylation (biotinyl-Leu-oxazolone) | self-aminoacylation (biotinyl-Trp-oxazolone)
27 | UUUCACCUAGGUCCUCGGGUG [Fam2.2 aminoacylation ribozyme variant] | 35.6 | 3.82 | 4.17 | 4.22 | 4.92 | 5.68
28 | CCACACUCCAAGCAAACGGUC [Fam1B.1 aminoacylation ribozyme variant] | 1.06 | 0.95 | 0.934 | 0.773 | 0.861 | 1.21
29 | AAGUUUGCUAAUAGGCUCAAG [Fam3.1 aminoacylation ribozyme variant] | 0.973 | 0.664 | 0.493 | 0.774 | 0.715 | 0.535
30 | AUUACACUGGUCAUCUAGUGA [Fam2.1 aminoacylation ribozyme variant] | 35 | 3.07 | 5.64 | 2.65 | 6.24 | 6.76
31 | CUACUUUAAACAAUCGGGCUG [Fam1A.1 aminoacylation ribozyme variant] | 0.648 | 1.2 | 1.25 | 1.06 | 1.07 | 0.746
32 | CUACUUCAAACGAUCGCUCUG [Fam1A.1 aminoacylation ribozyme variant] | 1.11 | 0.842 | 0.689 | 0.838 | 0.654 | 0.678
33 | AUUCACCUAGGUAAUAGGGUG [Fam2.2 aminoacylation ribozyme variant] | 22 | 2.7 | 4.95 | 2.43 | 5.63 | 4.25
34 | UCACACUUGAAGCAAUCGGUC [Fam1B.1 aminoacylation ribozyme variant] | 0.541 | 0.744 | 0.762 | 0.774 | 0.751 | 0.486
35 | CCACACUUUAAGCAAUCGGCC [Fam1B.1 aminoacylation ribozyme variant] | 1.64 | 1.52 | 1.58 | 1.74 | 1.22 | 1.85
36 | CCACAGUUCAAGCAAUGGGUC [Fam1B.1 aminoacylation ribozyme variant] | 0.542 | 1.04 | 1.03 | 1.05 | 0.763 | 0.726
37 | GCACACUUCAAGUAAUCGGUC [Fam1B.1 aminoacylation ribozyme variant] | 8.6 | 1.89 | 1.88 | 1.7 | 1.77 | 8.15
38 | AUGACCCUGGUCAGCGAGUGA [Fam2.1 aminoacylation ribozyme variant] | 24.2 | 3.46 | 4.85 | 2.94 | 5.66 | 6.08
39 | UUACUUCAAAAAAUCGGUCUG [Fam1A.1 aminoacylation ribozyme variant] | 7.17 | 1.44 | 1.22 | 0.984 | 1.29 | 5.65
40 | AAGUUUUCUAAUCGUCGCAAG [Fam3.1 aminoacylation ribozyme variant] | 2.56 | 1.75 | 1.68 | 1.69 | 1.79 | 1.65
41 | AAGUUUGCUAAUCGUCACAAG [Fam3.1 aminoacylation ribozyme variant] | 1.3 | 0.966 | 0.828 | 0.978 | 0.881 | 0.982
42 | AUUACGCUGGUCAUCGGGUGA [Fam2.1 aminoacylation ribozyme variant] | 60.9 | 6.21 | 8.98 | 7.46 | 7.84 | 9.36
43 | CGACUUCAAACAAUCUGUCUG [Fam1A.1 aminoacylation ribozyme variant] | 3.02 | 0.926 | 0.815 | 0.86 | 0.664 | 1.84
44 | AUUCAUAUAGGUCAUCGGGUG [Fam2.2 aminoacylation ribozyme variant] | 34.2 | 3.42 | 4.9 | 3.28 | 6.04 | 5.78
45 | AUUCCCCUGGUCAUCGAGAGA [Fam2.1 aminoacylation ribozyme variant] | 3.27 | 1.46 | 1.68 | 1.47 | 1.17 | 1.96
46 | AUACUUCAAGCAAUCGGUCUG [Fam1A.1 aminoacylation ribozyme variant] | 2.15 | 0.786 | 0.824 | 0.77 | 0.853 | 1.48
47 | AAGUUUGCUAAUAGUCCCAUG [Fam3.1 aminoacylation ribozyme variant] | 0.885 | 0.978 | 0.887 | 1.13 | 0.89 | 1.19
48 | AUUCACCUAUGUCACCGGGUG [Fam2.2 aminoacylation ribozyme variant] | 19 | 2.34 | 3.22 | 2.27 | 4.89 | 3.43
49 | AAGUUUGAUACUAGUCGCAAG [Fam3.1 aminoacylation ribozyme variant] | 1.36 | 1.5 | 0.811 | 1.25 | 1.37 | 0.887
50 | AAGUUUGCUAAUUGUCCCAAG [Fam3.1 aminoacylation ribozyme variant] | 2.16 | 1.28 | 1.15 | 1.21 | 0.999 | 1.01
51 | GUUCACCUAGGUCAUCGGUUG [Fam2.2 aminoacylation ribozyme variant] | 2.93 | 1.17 | 1.09 | 1.11 | 1.38 | 1.41

Source: the supplement of paper PMC9233669
